From US7041790B2, “Fibrinogen binding moieties” (Dyax Corp., priority 2002, dated 2006)
Bridges are numbered along the chain shown (N, C = ends).

Molecular target: T1, purified human fibrinogen (Homo sapiens, UniProt P02671+P02675+P02679)
T1 construct: purchased Calbiochem 341576
T1 sequence (P02671 20-629 limits assumed): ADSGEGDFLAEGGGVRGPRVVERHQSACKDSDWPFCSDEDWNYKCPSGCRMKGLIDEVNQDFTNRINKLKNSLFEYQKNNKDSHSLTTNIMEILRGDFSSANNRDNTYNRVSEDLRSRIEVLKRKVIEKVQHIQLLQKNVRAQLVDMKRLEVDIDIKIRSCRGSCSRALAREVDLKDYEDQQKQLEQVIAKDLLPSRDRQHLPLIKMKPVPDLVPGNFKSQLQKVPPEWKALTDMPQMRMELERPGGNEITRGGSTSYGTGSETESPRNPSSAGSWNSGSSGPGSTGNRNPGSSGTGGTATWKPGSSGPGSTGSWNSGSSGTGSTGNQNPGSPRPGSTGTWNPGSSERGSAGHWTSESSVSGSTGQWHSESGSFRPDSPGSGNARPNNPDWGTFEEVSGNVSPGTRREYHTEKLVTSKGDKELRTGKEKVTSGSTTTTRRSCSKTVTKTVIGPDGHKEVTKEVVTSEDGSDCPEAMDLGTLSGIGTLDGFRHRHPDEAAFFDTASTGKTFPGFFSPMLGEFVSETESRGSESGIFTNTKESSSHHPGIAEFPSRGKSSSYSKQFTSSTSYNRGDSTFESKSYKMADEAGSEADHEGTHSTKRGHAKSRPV
T1 sequence (P02675 31-491): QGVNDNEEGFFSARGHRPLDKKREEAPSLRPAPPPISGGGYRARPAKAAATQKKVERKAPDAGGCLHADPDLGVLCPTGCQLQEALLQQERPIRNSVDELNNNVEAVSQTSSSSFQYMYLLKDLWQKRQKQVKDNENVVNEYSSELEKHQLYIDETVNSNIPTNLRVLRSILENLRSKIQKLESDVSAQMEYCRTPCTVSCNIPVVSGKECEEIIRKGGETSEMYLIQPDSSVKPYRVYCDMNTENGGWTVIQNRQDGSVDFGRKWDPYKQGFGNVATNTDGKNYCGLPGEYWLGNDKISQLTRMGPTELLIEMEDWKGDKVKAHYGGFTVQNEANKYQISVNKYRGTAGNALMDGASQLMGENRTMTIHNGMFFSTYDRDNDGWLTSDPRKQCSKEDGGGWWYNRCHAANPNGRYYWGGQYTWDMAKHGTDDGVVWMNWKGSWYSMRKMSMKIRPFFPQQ
T1 sequence (P02679 27-433 limits assumed): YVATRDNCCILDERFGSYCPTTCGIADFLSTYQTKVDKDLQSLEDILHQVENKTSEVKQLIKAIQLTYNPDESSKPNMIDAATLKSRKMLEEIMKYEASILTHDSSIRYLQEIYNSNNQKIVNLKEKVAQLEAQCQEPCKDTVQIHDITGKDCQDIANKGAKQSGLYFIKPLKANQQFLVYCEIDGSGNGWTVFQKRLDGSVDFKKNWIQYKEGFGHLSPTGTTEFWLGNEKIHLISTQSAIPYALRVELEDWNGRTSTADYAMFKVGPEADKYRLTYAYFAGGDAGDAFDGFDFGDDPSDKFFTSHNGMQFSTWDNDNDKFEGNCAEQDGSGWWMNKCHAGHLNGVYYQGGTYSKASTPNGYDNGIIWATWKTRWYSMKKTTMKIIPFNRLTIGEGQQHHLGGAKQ
Test: Purified fibrinogen binding capacity of fibrinogen binding columns
Conditions: purified fibrinogen 0.5 mg/ml in PBS injected continuously, eluted with glycine 0.1M pH 2.5
Method: FIG. 1 is a chromatogram illustrating the purified fibrinogen binding capacity of a fibrinogen binding column utilizing the fibrinogen binding peptide of SEQ ID NO:48 and having a ligand density of 2.0 μM/ml resin. Purified fibrinogen (0.5 mg/ml in PBS) was injected continuously onto the column until the A280 reading reached a plateau. The column was then washed with PBS until a baseline reading was obtained and then eluted with glycine buffer (0.1M, pH 2.5). The eluted fraction (major peak) was collected and analyzed by HPLC Size Exclusion Chromatography (SEC). The capacity of the column was calculated to be 2.076 mg fibrinogen/ml resin.
FIG. 2 is a chromatogram illustrating the purified fibrinogen binding capacity of a fibrinogen binding column utilizing the fibrinogen binding peptide of SEQ ID NO:48 and having a ligand density of 4.0 μM/ml resin. Purified fibrinogen (0.5 mg/ml in PBS) was injected continuously onto the column until the A280 reading reached a plateau. The column was then washed with PBS until a baseline reading was obtained and then eluted with glycine buffer (0.1M, pH 2.5). The eluted fraction (major peak) was collected and analyzed by HPLC Size Exclusion Chromatography (SEC). The capacity of the column was calculated to be 4.1 mg fibrinogen/ml resin. […]

fibrinogen binding capacity of the column (ligand density 2.0 μM/ml resin): 2.076 mg fibrinogen/ml resin
fibrinogen binding capacity of the column (ligand density 4.0 μM/ml resin): 4.1 mg fibrinogen/ml resin
Substance: SEQ ID NO:48: fibrinogen binding polypeptide containing the cyclic core peptide of SEQ ID NO: 43 (Ac-AEGTGSLYLCNSYPMHPYCNPGK-NH2; disulfide 10-19 (inferred))
